Assay results published in patent US20230374161A1 (Stanford University, published 2023).

Biological target: human NKG2A (human, UniProt P26715 94-233, limits assumed)
Test: not stated; drawn table 'Binding affinity of anti-NKG2A scFv to human NKG2A', column 'Binding affinity, KD (M)'

Chain of human NKG2A (P26715 94-233 limits assumed): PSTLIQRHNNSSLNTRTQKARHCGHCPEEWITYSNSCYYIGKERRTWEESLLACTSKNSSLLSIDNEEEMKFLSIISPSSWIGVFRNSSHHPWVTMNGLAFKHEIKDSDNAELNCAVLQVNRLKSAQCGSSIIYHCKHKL

B1: murine anti-NKG2A scFv (scFv)
scFv: QVQLQQPGAELVRPGASVKLSCKASGYTFTSYWMNWVKQRPEQGLQWIGRIDPYDSETHYSQKFKDKAILTVDKSSSTAYMRLSSLTSEDSAVYYCARGGYDFDVGTLYWFFDVWGAGTTVTVSSGGSTRSSSSGGGGSGGGGDIQMTQSPASLSASVGETVTITCRASENIYSYLAWYQQKQGKSPQFLVYNAKTLAEGVPSRFSGSGSGTQFSLKINSLQPEDFGSYYCQHHYGTPRTFGGGTKLEIKAAAHHHHHHHH
notes: Derived from the VH and VL of murine antibody Z270 (U.S. Pat. No. 9,683,041), expressed in Hi5 cells, purified on Ni-NTA; also called αNKG2A-scFv
With B1 the Kd was 0.0665 nM.
